From the Human Domainome abundance scans (Beltran et al. 2025)
± gives the uncertainty stated by the source.

B1: Probable E3 ubiquitin-protein ligase MID2, residues 191 to 235; numbered along this chain, Q9UJV3 (parent)
chain: RGITCLDHENEKVNMYCVSDDQLICALCKLVGRHRDHQVASLNDR
B2: Triacylglycerol hydrolase DDHD2, residues 389 to 447; numbered along this chain, O94830 (parent)
chain: TLEEDLKKLQLSEFFDIFEKEKVDKEALALCTDRDLQEIGIPLGPRKKILNYFSTRKNS

Variants of: B1
Assay: abundance fitness (aPCA) (normalised: wild type 0, dead -1); higher = more abundant; growth selection in yeast, the domain comes from the species named
Conditions: Homo sapiens

Variant | abundance fitness
RGIVCLDHENEKVNMYCVSDDQLICALCKLVGRHRDHQVASLNDR | -0.235 ± 0.051
RGISCLDHENEKVNMYCVSDDQLICALCKLVGRHRDHQVASLNDR | -0.105 ± 0.062
RGIGCLDHENEKVNMYCVSDDQLICALCKLVGRHRDHQVASLNDR | -0.217 ± 0.045
RGILCLDHENEKVNMYCVSDDQLICALCKLVGRHRDHQVASLNDR | -0.376 ± 0.067
RGIDCLDHENEKVNMYCVSDDQLICALCKLVGRHRDHQVASLNDR | -0.16 ± 0.1
RGIWCLDHENEKVNMYCVSDDQLICALCKLVGRHRDHQVASLNDR | -0.219 ± 0.061
RGIQCLDHENEKVNMYCVSDDQLICALCKLVGRHRDHQVASLNDR | -0.257 ± 0.064
RGIHCLDHENEKVNMYCVSDDQLICALCKLVGRHRDHQVASLNDR | -0.071 ± 0.077
RGIYCLDHENEKVNMYCVSDDQLICALCKLVGRHRDHQVASLNDR | 0.133 ± 0.12
RGIACLDHENEKVNMYCVSDDQLICALCKLVGRHRDHQVASLNDR | -0.238 ± 0.053
RGIICLDHENEKVNMYCVSDDQLICALCKLVGRHRDHQVASLNDR | 0.032 ± 0.37
RGIECLDHENEKVNMYCVSDDQLICALCKLVGRHRDHQVASLNDR | -0.209 ± 0.049
RGIFCLDHENEKVNMYCVSDDQLICALCKLVGRHRDHQVASLNDR | 0.001 ± 0.14
RYITCLDHENEKVNMYCVSDDQLICALCKLVGRHRDHQVASLNDR | 0.023 ± 0.12
RVITCLDHENEKVNMYCVSDDQLICALCKLVGRHRDHQVASLNDR | -0.216 ± 0.061
RDITCLDHENEKVNMYCVSDDQLICALCKLVGRHRDHQVASLNDR | 0.108 ± 0.085
RQITCLDHENEKVNMYCVSDDQLICALCKLVGRHRDHQVASLNDR | -0.181 ± 0.091
RCITCLDHENEKVNMYCVSDDQLICALCKLVGRHRDHQVASLNDR | -0.511 ± 0.089
REITCLDHENEKVNMYCVSDDQLICALCKLVGRHRDHQVASLNDR | 0.115 ± 0.063
RAITCLDHENEKVNMYCVSDDQLICALCKLVGRHRDHQVASLNDR | -0.135 ± 0.054
RPITCLDHENEKVNMYCVSDDQLICALCKLVGRHRDHQVASLNDR | -0.222 ± 0.089
RLITCLDHENEKVNMYCVSDDQLICALCKLVGRHRDHQVASLNDR | -0.218 ± 0.061

Variant | abundance fitness
RWITCLDHENEKVNMYCVSDDQLICALCKLVGRHRDHQVASLNDR | -0.403 ± 0.057
RIITCLDHENEKVNMYCVSDDQLICALCKLVGRHRDHQVASLNDR | -0.522 ± 0.24
RRITCLDHENEKVNMYCVSDDQLICALCKLVGRHRDHQVASLNDR | -0.033 ± 0.045
RKITCLDHENEKVNMYCVSDDQLICALCKLVGRHRDHQVASLNDR | 0.042 ± 0.25
RTITCLDHENEKVNMYCVSDDQLICALCKLVGRHRDHQVASLNDR | -0.06 ± 0.086
RSITCLDHENEKVNMYCVSDDQLICALCKLVGRHRDHQVASLNDR | -0.069 ± 0.065
RMITCLDHENEKVNMYCVSDDQLICALCKLVGRHRDHQVASLNDR | -0.081 ± 0.068
RGSTCLDHENEKVNMYCVSDDQLICALCKLVGRHRDHQVASLNDR | -0.081 ± 0.048
RGRTCLDHENEKVNMYCVSDDQLICALCKLVGRHRDHQVASLNDR | -0.079 ± 0.046
RGLTCLDHENEKVNMYCVSDDQLICALCKLVGRHRDHQVASLNDR | -0.167 ± 0.055
RGQTCLDHENEKVNMYCVSDDQLICALCKLVGRHRDHQVASLNDR | -0.181 ± 0.054
RGYTCLDHENEKVNMYCVSDDQLICALCKLVGRHRDHQVASLNDR | 0.072 ± 0.12
RGETCLDHENEKVNMYCVSDDQLICALCKLVGRHRDHQVASLNDR | 0.036 ± 0.057
RGHTCLDHENEKVNMYCVSDDQLICALCKLVGRHRDHQVASLNDR | -0.195 ± 0.26
RGCTCLDHENEKVNMYCVSDDQLICALCKLVGRHRDHQVASLNDR | -0.101 ± 0.089
RGDTCLDHENEKVNMYCVSDDQLICALCKLVGRHRDHQVASLNDR | 0.123 ± 0.1
RGGTCLDHENEKVNMYCVSDDQLICALCKLVGRHRDHQVASLNDR | 0.043 ± 0.042
RGVTCLDHENEKVNMYCVSDDQLICALCKLVGRHRDHQVASLNDR | -0.188 ± 0.055
RGTTCLDHENEKVNMYCVSDDQLICALCKLVGRHRDHQVASLNDR | 0.08 ± 0.06
RGNTCLDHENEKVNMYCVSDDQLICALCKLVGRHRDHQVASLNDR | 0.162 ± 0.12
RGMTCLDHENEKVNMYCVSDDQLICALCKLVGRHRDHQVASLNDR | 0.111 ± 0.066
RGWTCLDHENEKVNMYCVSDDQLICALCKLVGRHRDHQVASLNDR | -0.229 ± 0.056

Variants of: B2
Assay: as above
Conditions: Homo sapiens

Variant | abundance fitness
TLEEDLKKLQLSEFFDIFEKEKVDKEALALCTDRDLQEIGIPLGPRKKILNYFSTRKNW | -0.074 ± 0.16
TLEEDLKKLQLSEFFDIFEKEKVDKEALALCTDRDLQEIGIPLGPRKKILNYFSTRKNQ | -0.293 ± 0.4
TLEEDLKKLQLSEFFDIFEKEKVDKEALALCTDRDLQEIGIPLGPRKKILNYFSTRKNY | -0.109 ± 0.18
TLEEDLKKLQLSEFFDIFEKEKVDKEALALCTDRDLQEIGIPLGPRKKILNYFSTRKNK | -0.547 ± 0.37
TLEEDLKKLQLSEFFDIFEKEKVDKEALALCTDRDLQEIGIPLGPRKKILNYFSTRKNT | -0.085 ± 0.11
TLEEDLKKLQLSEFFDIFEKEKVDKEALALCTDRDLQEIGIPLGPRKKILNYFSTRKNM | -0.068 ± 0.2
TLEEDLKKLQLSEFFDIFEKEKVDKEALALCTDRDLQEIGIPLGPRKKILNYFSTRKNV | -0.153 ± 0.12
TLEEDLKKLQLSEFFDIFEKEKVDKEALALCTDRDLQEIGIPLGPRKKILNYFSTRKNL | -0.473 ± 0.14
TLEEDLKKLQLSEFFDIFEKEKVDKEALALCTDRDLQEIGIPLGPRKKILNYFSTRKNH | -0.056 ± 0.17
TLEEDLKKLQLSEFFDIFEKEKVDKEALALCTDRDLQEIGIPLGPRKKILNYFSTRKNR | -0.352 ± 0.11
TLEEDLKKLQLSEFFDIFEKEKVDKEALALCTDRDLQEIGIPLGPRKKILNYFSTRKNN | -0.569 ± 0.26
TLEEDLKKLQLSEFFDIFEKEKVDKEALALCTDRDLQEIGIPLGPRKKILNYFSTRKNP | -0.064 ± 0.11
